Legend:
[1] = tested on: cells stably expressing HA-CHMP4C constructs, with siRNA; assay: Abscission checkpoint activation by drug; format: cell-based
HCT116^δCHMP4C cells [2] = assay: Cell growth assay with aphidicolin; format: cell-based; conditions: 30 nM aphidicolin
[3] = tested on: HCT116^WT and HCT116^δCHMP4C cells; assay: Cell-cycle arrest by flow cytometry, mitomycin C; format: cell-based; conditions: 200 ng/mL mitomycin C, overnight
[4] = tested on: HCT116^WT and HCT116^δCHMP4C cells; assay: Mitotic arrest by flow cytometry and Western blotting, nocodazole; format: cell-based; conditions: 50 ng/mL nocodazole
HCT116^WT cells [5] = conditions: 0.1 μM reversine, 48 h; <37 or >48 chromosomes; DMSO 1%
HCT116 cells [6] = assay: Anaphase chromosome missegregation; format: cell-based; conditions: low-dose (0.1 μM) reversine, or p53 depletion by shRNA
HCT116^δCHMP4C cells [7] = assay: Cell growth assay with reversine, HCT116^δCHMP4C; format: cell-based; conditions: 0.1 μM reversine
HCT116^WT cells [8] = conditions: 0.1 μM reversine, 7 d
HCT116 cells [9] = conditions: 0.1 μM reversine, cells with defective abscission checkpoint
HCT116^δCHMP4C cells [10] = assay: Karyotyping, extreme aneuploidy in HCT116^δCHMP4C; format: cell-based; conditions: 0.1 μM reversine; for protection against reversine-induced aneuploidy: reexpression in HCT116^δCHMP4C
full-length ALIX = assay: Yeast two-hybrid β-galactosidase assay with ALIX; conditions: full-length CHMP4C, mean ± SD, n = 3
[11] = tested on: HeLa cells stably expressing YFP-Lap2β; assay: Resolution time of YFP-Lap2β chromatin bridges, live-cell imaging; conditions: siCHMP4C, endogenous CHMP4C 685 min
HeLa cells = assay: Abscission checkpoint activity; conditions: siCHMP4C; Nup153/Nup50 partial depletion; midbody-arrested cells
[12] = tested on: HeLa mCherry-tubulin cells; assay: Midbody abscission time, live-cell imaging; conditions: siCHMP4C background
midbody of HeLa cells = assay: HA-CHMP4C midbody recruitment; conditions: with or without nucleoporin depletion
HCT116^δCHMP4C cells [13] = assay: DNA damage: 53BP1 foci; format: cell-based; conditions: reexpression in HCT116^δCHMP4C
HCT116 cells [14] = assay: Cell growth assay after p53 depletion; format: cell-based; conditions: p53 shRNA
[15] = construct expressed in HCT116^δCHMP4C

C[C@@]1(CO)[C@H](O)CC[C@@]2(C)[C@H]1CC[C@H]1C[C@@H]3C[C@@]12CC[C@]3(O)CO [aphidicolin, reference compound]
activation of the abscission checkpoint ([1]; 30 nM aphidicolin, 24 h (replication stress)): triggers the abscission checkpoint in a CHMP4C-dependent manner | effect on proliferation (HCT116^δCHMP4C cells [2]; continuous): reduced the proliferation of HCT116^δCHMP4C cells nearly twofold compared with HCT116^WT cells

CO[C@@]12[C@H](COC(N)=O)C3=C(C(=O)C(C)=C(N)C3=O)N1C[C@@H]1N[C@@H]12 [mitomycin C]
G2/M cell-cycle arrest [3]: normal in HCT116^δCHMP4C cells

COC(=O)Nc1nc2cc(C(=O)c3cccs3)ccc2[nH]1 [nocodazole]
mitotic / G2/M arrest [4]: did not observe a failure of HCT116^δCHMP4C cells to arrest

c1nc2nc(Nc3ccc(N4CCOCC4)cc3)nc(NC3CCCCC3)c2[nH]1 [reversine]
cells with extreme aneuploidy (HCT116^WT cells [5]): 7% | activation of the abscission checkpoint ([1]; 0.1 μM reversine, 24 h): activated the abscission checkpoint in a CHMP4C-dependent fashion | anaphase chromosome missegregation (HCT116 cells [6]): doubled the frequency of anaphase chromosome missegregation | reduction of cell growth (HCT116^δCHMP4C cells [7]; over 7-d period): at least 70% | reduction of cell growth (HCT116^WT cells [8]): reduced HCT116^WT cell growth only modestly | micronuclei (HCT116 cells [9]): did display a higher proportion of micronuclei | multinucleation (HCT116 cells [9]): did not induce a multinucleation phenotype | cells with extreme aneuploidy (HCT116^δCHMP4C cells [10]; 48 h, <37 or >48 chromosomes, DMSO 4%): 23%

B1: A232T full-length CHMP4C (protein, UniProt Q96CF2 1-233, looked up, variant A232T)
chain: MSKLGKFFKGGGSSKSRAAPSPQEALVRLRETEEMLGKKQEYLENRIQREIALAKKHGTQNKRAALQALKRKKRFEKQLTQIDGTLSTIEFQREALENSHTNTEVLRNMGFAAKAMKSVHENMDLNKIDDLMQEITEQQDIAQEISEAFSQRVGFGDDFDEDELMAELEELEQEELNKKMTNIRLPNVPSSSLPAQPNRKPGMSSTARRSRAASSQRAEEEDDDIKQLAAWTT
modifications: full-length
interaction with ALIX (full-length ALIX): significantly reduced the interaction between full-length CHMP4C and ALIX

B2: HA-CHMP4C^T232: HA-CHMP4C full length siRNA-resistant T232 rs35094336 mutant (protein, UniProt Q96CF2 1-233, looked up, variant A232T)
chain: MSKLGKFFKGGGSSKSRAAPSPQEALVRLRETEEMLGKKQEYLENRIQREIALAKKHGTQNKRAALQALKRKKRFEKQLTQIDGTLSTIEFQREALENSHTNTEVLRNMGFAAKAMKSVHENMDLNKIDDLMQEITEQQDIAQEISEAFSQRVGFGDDFDEDELMAELEELEQEELNKKMTNIRLPNVPSSSLPAQPNRKPGMSSTARRSRAASSQRAEEEDDDIKQLAAWTT
modifications: full-length HA tag
chromatin bridge resolution time, median [11]: 200 min | abscission checkpoint activity (HeLa cells): does not support the abscission checkpoint | abscission rate under normal growth conditions [12]: proceeded through abscission more rapidly under normal growth conditions | recruitment to midbody (midbody of HeLa cells): recruited to the midbody at normal levels | protection against reversine-induced aneuploidy (HCT116^δCHMP4C cells [10]): but not HA-CHMP4C^T232, protected against reversine-induced increases in aneuploidy

B3: L228A with W231A full-length CHMP4C (protein, UniProt Q96CF2 1-233, looked up, variant L228A W231A)
chain: MSKLGKFFKGGGSSKSRAAPSPQEALVRLRETEEMLGKKQEYLENRIQREIALAKKHGTQNKRAALQALKRKKRFEKQLTQIDGTLSTIEFQREALENSHTNTEVLRNMGFAAKAMKSVHENMDLNKIDDLMQEITEQQDIAQEISEAFSQRVGFGDDFDEDELMAELEELEQEELNKKMTNIRLPNVPSSSLPAQPNRKPGMSSTARRSRAASSQRAEEEDDDIKQAAAAAT
modifications: full-length
interaction with ALIX (full-length ALIX): complete loss of ALIX binding

B4: HA-CHMP4C^A232: HA-CHMP4C full length siRNA-resistant wild type, reference protein (protein, UniProt Q96CF2 1-233, looked up)
chain: MSKLGKFFKGGGSSKSRAAPSPQEALVRLRETEEMLGKKQEYLENRIQREIALAKKHGTQNKRAALQALKRKKRFEKQLTQIDGTLSTIEFQREALENSHTNTEVLRNMGFAAKAMKSVHENMDLNKIDDLMQEITEQQDIAQEISEAFSQRVGFGDDFDEDELMAELEELEQEELNKKMTNIRLPNVPSSSLPAQPNRKPGMSSTARRSRAASSQRAEEEDDDIKQLAAWAT
modifications: full-length HA tag
chromatin bridge resolution time, median [11]: 800 min | DNA damage, 53BP1 foci (HCT116^δCHMP4C cells [13]): reduced to control levels upon reexpression of HA-CHMP4C^A232 | growth after p53 depletion (HCT116 cells [14]): reversed upon reexpression of CHMP4C^A232 | abscission checkpoint activity (HeLa cells): checkpoint activity was rescued in cells that expressed HA-CHMP4C^A232 | rescue of growth defect under aphidicolin (HCT116^δCHMP4C cells [2]; [15]): rescued by expression of HA-CHMP4C^A232 | restoration of growth in presence of reversine (HCT116^δCHMP4C cells [7]; [15]): restored by the expression of HA-CHMP4C^A232 | recruitment to midbody (midbody of HeLa cells): recruited to the midbody at normal levels | protection against reversine-induced aneuploidy (HCT116^δCHMP4C cells [10]): protected against reversine-induced increases in aneuploidy
